Experimental data taken from article PMC5415106, “Dpb11 may function with RPA and DNA to initiate DNA replication”.

How the values were obtained:
Dpb11 wild-type [1] = molecular target: T1, Dpb11 wild-type (Saccharomyces cerevisiae (budding yeast), UniProt P47027 1-764); assay: EMSA; more than half bound at 40 nM; EMSA: 1 nM 32P-DNA, 20 mM Tris-HCl pH 7.5, 0.1 mM EDTA, 0.2 mM DTT, 10% glycerol, 40 mg/ml BSA (so in the source), 5 min at 30 C, 0.7% native agarose in 0.5x TBE; GST pull-down: 40 mM Tris-HCl pH 7.5, 100 mM NaCl, 0.1 mM EDTA, 10% glycerol, 0.1% Triton X-100, 1 mM DTT, 0.1 mg/ml BSA, 25 C; conditions: protein: recombinant; (nickel column purification); label: 32P
T1 sequence: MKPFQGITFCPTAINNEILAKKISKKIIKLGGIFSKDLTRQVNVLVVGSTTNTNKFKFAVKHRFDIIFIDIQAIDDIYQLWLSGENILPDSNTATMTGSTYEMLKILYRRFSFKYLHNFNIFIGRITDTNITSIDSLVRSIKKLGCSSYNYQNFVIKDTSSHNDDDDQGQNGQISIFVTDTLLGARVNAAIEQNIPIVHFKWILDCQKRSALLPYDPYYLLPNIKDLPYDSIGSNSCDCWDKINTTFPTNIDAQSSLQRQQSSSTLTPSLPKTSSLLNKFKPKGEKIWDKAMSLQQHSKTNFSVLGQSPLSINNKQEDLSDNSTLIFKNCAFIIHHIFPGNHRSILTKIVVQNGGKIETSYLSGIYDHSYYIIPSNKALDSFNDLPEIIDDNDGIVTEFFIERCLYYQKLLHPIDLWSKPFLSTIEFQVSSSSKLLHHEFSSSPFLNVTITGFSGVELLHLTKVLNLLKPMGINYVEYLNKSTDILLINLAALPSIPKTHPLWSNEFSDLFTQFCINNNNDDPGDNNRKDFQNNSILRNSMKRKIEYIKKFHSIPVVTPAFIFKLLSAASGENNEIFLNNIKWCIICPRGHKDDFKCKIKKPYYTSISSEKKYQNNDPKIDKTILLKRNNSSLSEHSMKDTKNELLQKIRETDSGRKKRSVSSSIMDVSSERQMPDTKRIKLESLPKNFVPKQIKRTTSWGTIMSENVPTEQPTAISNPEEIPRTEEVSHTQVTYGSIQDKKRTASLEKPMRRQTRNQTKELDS

Dpb11 wild-type [2] = molecular target: T1, Dpb11 wild-type; assay: EMSA; nearly 80% bound at 20 nM; EMSA: 1 nM 32P-DNA, 20 mM Tris-HCl pH 7.5, 0.1 mM EDTA, 0.2 mM DTT, 10% glycerol, 40 mg/ml BSA (so in the source), 5 min at 30 C, 0.7% native agarose in 0.5x TBE; GST pull-down: 40 mM Tris-HCl pH 7.5, 100 mM NaCl, 0.1 mM EDTA, 10% glycerol, 0.1% Triton X-100, 1 mM DTT, 0.1 mg/ml BSA, 25 C; conditions: protein: recombinant, (nickel column purification), label: 32P
TopBP1 full-length = TopBP1 full-length (Homo sapiens, UniProt Q92547 1-1522); assay: EMSA; nearly 50% shifted at 20 nM; EMSA: 1 nM 32P-DNA, 20 mM Tris-HCl pH 7.5, 0.1 mM EDTA, 0.2 mM DTT, 10% glycerol, 40 mg/ml BSA (so in the source), 5 min at 30 C, 0.7% native agarose in 0.5x TBE; GST pull-down: 40 mM Tris-HCl pH 7.5, 100 mM NaCl, 0.1 mM EDTA, 10% glycerol, 0.1% Triton X-100, 1 mM DTT, 0.1 mg/ml BSA, 25 C; conditions: protein: recombinant, label: 32P
Sequence of TopBP1 full-length (Q92547 whole entry): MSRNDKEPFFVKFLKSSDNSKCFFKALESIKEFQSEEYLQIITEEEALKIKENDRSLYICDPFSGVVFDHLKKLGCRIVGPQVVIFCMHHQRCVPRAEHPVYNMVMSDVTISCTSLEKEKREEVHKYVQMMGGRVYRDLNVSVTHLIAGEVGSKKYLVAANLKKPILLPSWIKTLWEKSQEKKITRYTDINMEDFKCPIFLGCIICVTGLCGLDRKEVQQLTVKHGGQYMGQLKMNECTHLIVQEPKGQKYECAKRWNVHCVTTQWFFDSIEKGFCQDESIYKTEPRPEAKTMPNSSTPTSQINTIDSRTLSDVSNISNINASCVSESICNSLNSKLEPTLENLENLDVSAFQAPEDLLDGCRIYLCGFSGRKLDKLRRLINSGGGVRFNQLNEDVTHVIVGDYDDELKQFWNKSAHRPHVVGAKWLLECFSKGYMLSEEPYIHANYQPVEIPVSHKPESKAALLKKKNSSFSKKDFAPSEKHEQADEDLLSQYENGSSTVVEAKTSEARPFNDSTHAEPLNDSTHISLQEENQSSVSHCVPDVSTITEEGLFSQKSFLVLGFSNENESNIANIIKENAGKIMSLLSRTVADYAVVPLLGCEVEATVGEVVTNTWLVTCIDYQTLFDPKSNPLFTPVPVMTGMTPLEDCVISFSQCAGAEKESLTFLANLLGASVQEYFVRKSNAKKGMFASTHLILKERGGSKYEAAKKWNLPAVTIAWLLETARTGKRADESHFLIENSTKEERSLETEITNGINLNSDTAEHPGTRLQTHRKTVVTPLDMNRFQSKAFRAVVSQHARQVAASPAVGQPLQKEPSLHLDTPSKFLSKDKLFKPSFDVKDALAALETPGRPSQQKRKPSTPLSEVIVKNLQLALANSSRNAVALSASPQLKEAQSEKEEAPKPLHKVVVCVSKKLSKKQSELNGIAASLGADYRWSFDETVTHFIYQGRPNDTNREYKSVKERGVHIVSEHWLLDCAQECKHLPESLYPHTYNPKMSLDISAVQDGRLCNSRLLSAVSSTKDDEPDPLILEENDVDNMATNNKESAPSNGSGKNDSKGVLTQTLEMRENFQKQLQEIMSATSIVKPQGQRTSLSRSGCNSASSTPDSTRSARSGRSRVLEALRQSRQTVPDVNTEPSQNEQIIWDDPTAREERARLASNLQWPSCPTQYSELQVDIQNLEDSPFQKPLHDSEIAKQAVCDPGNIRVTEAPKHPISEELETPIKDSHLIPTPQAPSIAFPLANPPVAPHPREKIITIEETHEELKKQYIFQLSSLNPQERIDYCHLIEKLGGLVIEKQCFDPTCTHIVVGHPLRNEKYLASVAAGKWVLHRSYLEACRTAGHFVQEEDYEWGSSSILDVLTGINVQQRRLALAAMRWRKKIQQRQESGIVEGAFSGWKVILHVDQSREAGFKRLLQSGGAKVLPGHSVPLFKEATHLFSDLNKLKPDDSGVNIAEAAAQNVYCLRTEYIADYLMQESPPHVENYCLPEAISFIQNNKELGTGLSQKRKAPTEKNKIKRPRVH

Dpb11 wild-type [3] = molecular target: T1, Dpb11 wild-type; assay: EMSA; 80 nM required to bind more than half; EMSA: 1 nM 32P-DNA, 20 mM Tris-HCl pH 7.5, 0.1 mM EDTA, 0.2 mM DTT, 10% glycerol, 40 mg/ml BSA (so in the source), 5 min at 30 C, 0.7% native agarose in 0.5x TBE; GST pull-down: 40 mM Tris-HCl pH 7.5, 100 mM NaCl, 0.1 mM EDTA, 10% glycerol, 0.1% Triton X-100, 1 mM DTT, 0.1 mg/ml BSA, 25 C; conditions: protein: recombinant, (nickel column purification), label: 32P
Dpb11 wild-type [4] = molecular target: T1, Dpb11 wild-type; assay: EMSA; 320 nM required to bind more than half; EMSA: 1 nM 32P-DNA, 20 mM Tris-HCl pH 7.5, 0.1 mM EDTA, 0.2 mM DTT, 10% glycerol, 40 mg/ml BSA (so in the source), 5 min at 30 C, 0.7% native agarose in 0.5x TBE; GST pull-down: 40 mM Tris-HCl pH 7.5, 100 mM NaCl, 0.1 mM EDTA, 10% glycerol, 0.1% Triton X-100, 1 mM DTT, 0.1 mg/ml BSA, 25 C; conditions: protein: recombinant; (nickel column purification); label: 32P; blunt
[5] = fork 1:2, 31 bp duplex with two T80 arms
[6] = bubble: 31 bp and 22 bp duplexes flanking T80/T80 loop

B1: ssDNA (dT80) (ssDNA)
DNA: TTTTTTTTTTTTTTTTTTTTTTTTTTTTTTTTTTTTTTTTTTTTTTTTTTTTTTTTTTTTTTTTTTTTTTTTTTTTTTTT
apparent K (half saturation) (Dpb11 wild-type [1]): < 40 nM

B2: fork DNA (structured_DNA)
DNA 1: ATGTCCTAGCAAGCCAGAATTCGGCAGCGTCTTTTTTTTTTTTTTTTTTTTTTTTTTTTTTTTTTTTTTTTTTTTTTTTTTTTTTTTTTTTTTTTTTTTTTTTTTTTTTTT
DNA 2: TTTTTTTTTTTTTTTTTTTTTTTTTTTTTTTTTTTTTTTTTTTTTTTTTTTTTTTTTTTTTTTTTTTTTTTTTTTTTTTTGACGCTGCCGAATTCTGGCTTGCTAGGACAT
apparent K (half saturation) (Dpb11 wild-type [2]; [5]): < 20 nM | apparent K (half saturation) (TopBP1 full-length; [5]): ~20 nM

B3: 3'-tailed DNA (mixed)
DNA 1: GACGCTGCCGAATTCTGGCTTGCTAGGACAT
DNA 2: B2 DNA 1
apparent K (half saturation) (Dpb11 wild-type [3]; 3' overhang 80 nt (T)): ~80 nM | apparent K (half saturation) (TopBP1 full-length; 3' overhang 80 nt (T)): ~20 nM

B4: 5'-tailed DNA (mixed)
DNA 1: ATGTCCTAGCAAGCCAGAATTCGGCAGCGTC
DNA 2: B2 DNA 2
apparent K (half saturation) (Dpb11 wild-type [3]; 5' overhang 80 nt (T)): ~80 nM | apparent K (half saturation) (TopBP1 full-length; 5' overhang 80 nt (T)): ~20 nM

B5: bubble DNA (structured_DNA)
DNA 1: ATGTCCTAGCAAGCCAGAATTCGGCAGCGTCTTTTTTTTTTTTTTTTTTTTTTTTTTTTTTTTTTTTTTTTTTTTTTTTTTTTTTTTTTTTTTTTTTTTTTTTTTTTTTTTCCACGTCGGCGTCGCCACGAGC
DNA 2: GCTCGTGGCGACGCCGACGTGGTTTTTTTTTTTTTTTTTTTTTTTTTTTTTTTTTTTTTTTTTTTTTTTTTTTTTTTTTTTTTTTTTTTTTTTTTTTTTTTTGACGCTGCCGAATTCTGGCTTGCTAGGACAT
apparent K (half saturation) (Dpb11 wild-type [2]; [6]): < 20 nM | apparent K (half saturation) (TopBP1 full-length; [6]): ~20 nM

B6: blunt dsDNA (dsDNA)
DNA 1: B4 DNA 1
DNA 2: B3 DNA 1
apparent K (half saturation) (Dpb11 wild-type [4]): ~320 nM
